Assay results: PMC5387032 (Photosynthesis Research, 2017)

T1: RbcL from Thermosynechococcus elongatus, made in E. coli (Thermosynechococcus vestitus (strain …, UniProt Q8DIS5))
T1 chain: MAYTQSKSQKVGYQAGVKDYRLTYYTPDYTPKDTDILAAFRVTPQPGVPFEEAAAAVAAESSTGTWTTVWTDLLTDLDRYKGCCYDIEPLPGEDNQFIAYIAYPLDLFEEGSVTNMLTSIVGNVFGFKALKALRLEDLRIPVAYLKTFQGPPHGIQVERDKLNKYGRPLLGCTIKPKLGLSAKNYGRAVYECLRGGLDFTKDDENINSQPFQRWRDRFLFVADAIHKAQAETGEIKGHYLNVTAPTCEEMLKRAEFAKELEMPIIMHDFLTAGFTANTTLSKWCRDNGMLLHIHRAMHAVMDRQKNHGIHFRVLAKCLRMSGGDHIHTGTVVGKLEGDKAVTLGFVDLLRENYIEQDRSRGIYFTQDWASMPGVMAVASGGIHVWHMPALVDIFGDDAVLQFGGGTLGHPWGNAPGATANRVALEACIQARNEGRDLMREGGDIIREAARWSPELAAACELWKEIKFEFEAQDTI

B1: RbcL from Thermosynechococcus elongatus, made in E. coli (natural protein, UniProt Q8DIS5 1-475, looked up)
chain: T1 chain
notes: Ribulose-1,5-bisphosphate carboxylase/oxygenase large subunit, Thermosynechococcus elongatus; rbcL gene in the previously described pUC18rbcL plasmid (Tarnawski et al. 2008); also called RbcLTe; Te; source: E. coli Rosetta, expressed alone or co-expressed with raf1 or rbcX from Synechocystis, in crude extract; complexes purified (ammonium sulfate, Q-Sepharose)
B2: RAF1 from Synechocystis sp. PCC 6803, untagged, made in E. coli (protein)
chain: MTHSPESNPTVSAAEAAELIRSLLHKEGTWVDWGKKCQQLQKAGYGAEEIFEQSGFQKVQQNLVIVASQVYESLVKQGIDETVLSYYRGPKSDVLYELRILNHQQRAIAAVEAQQKNLAADEAKELAKAFQEFGYLSQLPEGFTDHPGDALAYQCWKLARQKKNLPERTRLIVKGLKFAHSPNARQAIEKLLTDLTAQPSRKAPLVPVFRLEEDQEAARLIPVAGTFPLQPQAVQAVQSLEQVEPFGLVSYQGEGAVVPVPQWQAILTAEDPVAIFCPAGQVSESLARKDEQVLVVVDRSKKIWNDGSYFLLNQGETVAIQWCETEPEREILAQVVLVLRPKKIFDANNLREPWQMDD

Tests used:
[1] = target: the molecule itself; assay: native gel or EMSA; raf1 from Synechocystis co-expressed with rbcL genes in E. coli (or rbcL alone); crude extracts separated by native PAGE and probed with anti-RbcL or anti-RAF1 antibodies
[2] = target: T1, RbcL from Thermosynechococcus …; assay: co-expression in E. coli with co-purification of the complex; native PAGE

Binder | stoichiometry N [1] | binding result [2]
B1 | 8 | 
B2 |  | binds
